Experimental data reported in patent publication US20140120095A1 (Boehringer Ingelheim, published 2014).
Like-named read-outs stand apart in the source and are kept apart here.

B1: VEGFBII037 (VHH)
VHH: DVQLVESGGGLVQPGGSLRLSCAASGRTFSSYSMGWFRQAPGKEREFVVAISKGGYKYDAVSLEGRFTISRDNAKNTVYLQMNSLRPEDTAVYYCASSRAYGSSRLRLADTYEYWGQGTLVTVSS
notes: also called VEGFBII0037
B2: DLLBII101G08 (VHH, not shown: small tags and cut ends)
VHH: EVQLVESGGGLVQAGGSLRLSCAASGRTFSSYAMAWFRQAPGKEREFVAAIRWSGGTAYYADSVQGRFTISRDNAKNTVYLQMNSLKPEDTAVYYCANRAADTRLGPYEYDYWGQGTQVTVSS
notes: Anti-DLL4 VHH; also called 101G8
B3: VEGFBII025 (VHH, not shown: small tags and cut ends)
chain: EVQLVESGGGLVQAGGSLRLSCAASGRTFSNYAMGWFRQAPGKERVLVADISSSGINTYVADAVKGRFTISRDNAKNTVYLQMNSLKPEDTAVYYCAASAWWYSQMARDNYRYWGQGTQVTVSSGGGGSGGGGSGGGGSGGGGSGGGGSGGGGSGGGGSGGGGSEVQLVESGGGLVQTGDSLRLSCEVSGRTFSSYSMGWFRQAQGKEREFVVAISKGGYKYDSVSLEGRFTISKDNAKNTVYLQINSLKPEDTAVYYCASSRAYGSSRLRLADTYEYWGQGTQVTVSS
notes: Bivalent anti-VEGF VHH; also called VEGFBII10E07-40GS-23B04
B4: VEGFDLLBII001 (bispecific antibody)
chain: EVQLVESGGGLVQAGGSLRLSCAASGRTFSSYAMAWFRQAPGKEREFVAAIRWSGGTAYYADSVQGRFTISRDNAKNTVYLQMNSLKPEDTAVYYCANRAADTRLGPYEYDYWGQGTQVTVSSGGGGSGGGGSGGGGCGGGGSGGGGSGGGGSGGGGSEVQLVESGGGLVQTGDSLRLSCEVSGRTFSSYSMGWFRQAQGKEREFVVAISKGGYKYDSVSLEGRFTISKDNAKNTVYLQINSLKPEDTAVYYCASSRAYGSSRLRLADTYEYWGQGTQVTVSS
modifications: PEGylated at the Cys at position 15 of the 35 Gly-Ser linker
notes: DLLBII101G08 - 35GS(Cys15) - VEGFBII23B04
B5: VEGFBII024 (VHH, not shown: small tags and cut ends)
chain: EVQLVESGGGLVQTGDSLRLSCEVSGRTFSSYSMGWFRQAQGKEREFVVAISKGGYKYDSVSLEGRFTISKDNAKNTVYLQINSLKPEDTAVYYCASSRAYGSSRLRLADTYEYWGQGTQVTVSSGGGGSGGGGSGGGGSGGGGSGGGGSGGGGSGGGGSGGGGSEVQLVESGGGLVQAGGSLRLSCTASGSAFKSYRMGWFRRTPGKEDEFVASISWTYGSTFYADSVKGRFTMSRDKAKNAGYLQMNSLKPEDTALYYCAAGAQSDRYNIRSYDYWGQGTQVTVSS
notes: Bivalent anti-VEGF VHH; also called VEGFBII23B04-40GS-86H09
B6: VEGFBII010 (VHH, not shown: small tags and cut ends)
chain: EVQLVESGGGLVQTGDSLRLSCEVSGRTFSSYSMGWFRQAQGKEREFVVAISKGGYKYDSVSLEGRFTISKDNAKNTVYLQINSLKPEDTAVYYCASSRAYGSSRLRLADTYEYWGQGTQVTVSSGGGGSGGGGSGGGGSGGGGSGGGGSGGGGSGGGGSEVQLVESGGGLVQTGDSLRLSCEVSGRTFSSYSMGWFRQAQGKEREFVVAISKGGYKYDSVSLEGRFTISKDNAKNTVYLQINSLKPEDTAVYYCASSRAYGSSRLRLADTYEYWGQGTQVTVSS
notes: Homodimeric bivalent anti-VEGF VHH; also called VEGFBII23B04-35GS-23B04
B7: VEGFDLLBII002 (bispecific antibody)
chain: EVQLVESGGGLVQTGDSLRLSCEVSGRTFSSYSMGWFRQAQGKEREFVVAISKGGYKYDSVSLEGRFTISKDNAKNTVYLQINSLKPEDTAVYYCASSRAYGSSRLRLADTYEYWGQGTQVTVSSGGGGSGGGGSGGGGCGGGGSGGGGSGGGGSGGGGSEVQLVESGGGLVQAGGSLRLSCAASGRTFSSYAMAWFRQAPGKEREFVAAIRWSGGTAYYADSVQGRFTISRDNAKNTVYLQMNSLKPEDTAVYYCANRAADTRLGPYEYDYWGQGTQVTVSS
modifications: PEGylated at the Cys at position 15 of the 35 Gly-Ser linker
notes: VEGFBII23B04 - 35GS(Cys15) - DLLBII101G08

Legend:
[1] = target: T1, VEGF (used to stimulate HUVEC cells) (UniProt P15692-4 27-191, limits assumed); assay: cell-based or functional assay
[2] = target: T2, recombinant human VEGF165 (human, UniProt P15692-4 27-191, biotinylated in the competition assays); assay: AlphaScreen, hVEGF165/hVEGFR2-Fc competition
T2 construct: Bought protein; also called hVEGF165; rhVEGF165

[3] = target: T2, recombinant human VEGF165; assay: SPR Biacore, VEGF165
[4] = target: T3, human DLL4, full length, overexpressed on cells (human, UniProt Q9NR61 27-685); assay: FMAT, hNotch1-Fc on CHO-hDLL4, +25 uM HSA
T3 construct: CHO cells in FMAT, HEK293 cells in the reporter assay; also called hDLL4; CHO-hDLL4

[5] = target: T3, human DLL4, full length, overexpressed …; assay: FMAT, hNotch1-Fc on CHO-hDLL4, -HSA
[6] = target: T2, recombinant human VEGF165; assay: binding ELISA, coated rhVEGF165
Target sequence in this assay (P15692 other isoform, or with tags, fused parts or gaps): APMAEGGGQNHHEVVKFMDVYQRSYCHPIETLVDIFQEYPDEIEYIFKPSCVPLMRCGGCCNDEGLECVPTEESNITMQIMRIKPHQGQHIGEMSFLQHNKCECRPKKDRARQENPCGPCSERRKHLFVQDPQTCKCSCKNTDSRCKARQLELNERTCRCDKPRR

[7] = target: T4, recombinant mouse VEGF164 (mouse, UniProt Q00731-2 27-190, biotinylated as the labelled ligand of the mVEGF164/mVEGFR2 AlphaScreen); assay: binding ELISA on coated recombinant mouse VEGF164 (Example 12.6), OD 450 nm
T4 construct: also called mVEGF164; rmVEGF164
T4 sequence (looked up): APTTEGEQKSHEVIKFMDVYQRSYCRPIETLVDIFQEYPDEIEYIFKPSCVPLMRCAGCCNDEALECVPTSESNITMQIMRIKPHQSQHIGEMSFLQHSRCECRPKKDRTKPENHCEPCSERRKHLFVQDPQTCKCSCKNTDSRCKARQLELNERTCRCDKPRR
Procedure: Cross-reactivity to mouse VEGF164 is determined using a binding ELISA. […] Wells are blocked with a casein solution (1% in PBS). […] A mouse VEGF164 reactive mAb is included as positive control.

[8] = target: T2, recombinant human VEGF165; assay: SPR Biacore, immobilised hVEGF165, two state reaction model
Procedure: Samples are injected for 2 min and allowed to dissociate up to 20 min at a flow rate of 45 μl/min. In between sample injections, the chip surface is regenerated with 100 mM HCl. HBS-EP+(Hepes buffer pH7.4+EDTA) is used as running buffer. Binding curves are fitted using a Two State Reaction model by Biacore T100 Evaluation Software v2.0.1.
^{(a)}KD = kd1/kₐ₁ * (kd2/(kd2 + kₐ₂)) ^{(b)}Curves are fitted using a Two State Reaction model by Biacore T100 Evaluation Software v2.0.1
Target sequence in this assay (P15692 other isoform, or with tags, fused parts or gaps): as the sequence (P15692 other isoform, or with tags, fused parts or gaps) above

[9] = target: T2, recombinant human VEGF165; assay: ELISA, hVEGF165/hVEGFR2-Fc competition; design: % inhibition: concentration or dose not given beside the values
[10] = target: T5, recombinant human VEGF121 (human, UniProt P15692-9 27-147); assay: binding ELISA, coated rhVEGF121
T5 construct: also called rhVEGF121
T5 sequence (looked up): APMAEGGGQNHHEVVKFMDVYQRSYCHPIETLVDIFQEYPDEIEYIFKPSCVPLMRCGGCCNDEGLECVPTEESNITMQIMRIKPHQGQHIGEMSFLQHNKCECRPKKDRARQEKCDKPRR
Procedure: Binding to recombinant human VEGF121 is assessed via a solid phase binding ELISA. […] Wells are blocked with a casein solution (1% in PBS).

[11] = target: T2, recombinant human VEGF165; assay: AlphaScreen, hVEGF165/hVEGFR1-Fc competition
Procedure: (§1) Finally, streptavidin donor beads (20 μg/ml) are added and after 1 hour of incubation in the dark, fluorescence is measured on the Envision microplate reader.
Target sequence in this assay (P15692 other isoform, or with tags, fused parts or gaps): as the sequence (P15692 other isoform, or with tags, fused parts or gaps) above

[12] = target: T2, recombinant human VEGF165; assay: AlphaScreen, hVEGF165/hVEGFR1-Fc competition; design: % inhibition: concentration or dose not given beside the values
Procedure: as §1
Target sequence in this assay (P15692 other isoform, or with tags, fused parts or gaps): as the sequence (P15692 other isoform, or with tags, fused parts or gaps) above

[13] = target: T2, recombinant human VEGF165; assay: AlphaScreen, hVEGF165/hVEGFR2-Fc competition; design: % inhibition: concentration or dose not given beside the values
Procedure: as §1

[14] = target: T2, recombinant human VEGF165; assay: AlphaScreen, hVEGF165/hVEGFR2-Fc competition; remark: listed apart in the source
Procedure: as §1
Target sequence in this assay (P15692 other isoform, or with tags, fused parts or gaps): as the sequence (P15692 other isoform, or with tags, fused parts or gaps) above

[15] = target: T1, VEGF (used to stimulate HUVEC cells); assay: cell-based or functional assay; remark: listed apart in the source
Target sequence in this assay (P15692 other isoform, or with tags, fused parts or gaps limits assumed): as the sequence (P15692 other isoform, or with tags, fused parts or gaps) above

[16] = target: T2, recombinant human VEGF165; assay: AlphaScreen, hVEGF165/hVEGFR2-Fc competition, +5 uM HSA
Procedure: These 2 competition assays are also performed after preincubation of the VHHs with 5 μM human serum albumin.

[17] = target: T2, recombinant human VEGF165; assay: AlphaScreen, hVEGF165/hVEGFR1-Fc competition, -HSA
[18] = target: T2, recombinant human VEGF165; assay: AlphaScreen, hVEGF165/hVEGFR2-Fc competition, -HSA
[19] = target: T2, recombinant human VEGF165; assay: ELISA, hVEGF165/hVEGFR1-Fc competition; design: % inhibition: concentration or dose not given beside the values
Target sequence in this assay (P15692 other isoform, or with tags, fused parts or gaps): as the sequence (P15692 other isoform, or with tags, fused parts or gaps) above

[20] = target: T1, VEGF (used to stimulate HUVEC cells); assay: cell-based or functional assay; remark: listed apart in the source
Target sequence in this assay (P15692 other isoform, or with tags, fused parts or gaps limits assumed): as the sequence (P15692 other isoform, or with tags, fused parts or gaps) above

Row | Binder | IC50 [4] | IC50 [5] | EC50 [6] | binding result [7] | Kd [8] | ka1 [8] | ka2 [8] | kd1 [8] | kd2 [8] | % inhibition [9] | IC50 [9] | EC50 [10] | % inhibition [12] | IC50 [12] | % inhibition [13] | IC50 [13] | % inhibition, VEGF HUVEC Erk phosphorylation assay [15] | IC50, VEGF HUVEC Erk phosphorylation assay [15] | further results
1 | B1 |  |  |  |  |  |  |  |  |  |  |  |  |  |  |  |  |  |  | % inhibition, VEGF HUVEC proliferation assay [1]: 78%; IC50, VEGF HUVEC proliferation assay [1]: 1.54 nM; % inhibition [2]: 100%; IC50 [2]: 0.3 nM; Kd [3]: 0.27 nM
2 | B2 | 30.1 nM | 31 nM |  |  |  |  |  |  |  |  |  |  |  |  |  |  |  |  | 
3 | B3 |  |  | 0.668 nM | binds | 1.1 nM | 330000 M⁻¹ s⁻¹ | 0.018 s⁻¹ | 0.017 s⁻¹ | 0.00037 s⁻¹ | 100% | 0.577 nM | 0.475 nM | 82% | 0.071 nM | 100% | 0.051 nM | 99% | 0.23 nM | % inhibition [11]: 82%; IC50 [11]: 0.039 nM; IC50 [14]: 0.051 nM
4 | B4 | 122 nM | 128 nM |  |  |  |  |  |  |  |  |  |  |  |  |  |  |  |  | % inh [16]: 100%; IC50 [16]: 0.64 nM; % inh [17]: 69%; IC50 [17]: 1.58 nM; % inh [18]: 100%; IC50 [18]: 0.64 nM
5 | B5 |  |  | 0.32 nM | binds | 0.47 nM | 300000 M⁻¹ s⁻¹ | 0.026 s⁻¹ | 0.013 s⁻¹ | 0.00028 s⁻¹ | 100% | 0.292 nM | 0.325 nM | 98% | 0.069 nM | 100% | 0.05 nM | 94% | 0.23 nM | % inhibition [19]: 92%; IC50 [19]: 0.326 nM; % inhibition [11]: 100%; IC50 [11]: 0.046 nM; IC50 [14]: 0.012 nM; % inhibition, VEGF HUVEC proliferation assay [20]: 96%; IC50, VEGF HUVEC proliferation assay [20]: 0.38 nM
6 | B6 |  |  | 0.428 nM | binds | 0.16 nM | 450000 M⁻¹ s⁻¹ | 0.029 s⁻¹ | 0.017 s⁻¹ | 0.00013 s⁻¹ | 100% | 0.049 nM | 0.92 nM | 70% | 0.021 nM | 100% | 0.016 nM | 92% | 0.19 nM | % inhibition [19]: 67%; IC50 [19]: 0.0735 nM; % inhibition, VEGF HUVEC proliferation assay [20]: 95%; IC50, VEGF HUVEC proliferation assay [20]: 0.22 nM
7 | B7 | 120 nM | 106 nM |  |  |  |  |  |  |  |  |  |  |  |  |  |  |  |  | % inh [16]: 100%; IC50 [16]: 0.24 nM; % inh [17]: 64%; IC50 [17]: 0.36 nM; % inh [18]: 100%; IC50 [18]: 0.2 nM
